Measured values published in the supplement of paper PMC10065799, “High-throughput profiling of sequence recognition by tyrosine kinases and SH2 domains using bacterial peptide display” (eLife, 2023).

Experiments:
[1] = molecular target: Hck (UniProt P08631); assay: phosphorylation enrichment, bacterial display (enrichment ratio); higher = better substrate or ligand; peptides without Tyr show the background
[2] = molecular target: FGFR3 (UniProt P22607); assay: as above
[3] = test system: AncSZ; assay: as above
[4] = molecular target: EPHB2 (UniProt P29323); assay: as above
[5] = molecular target: FGFR1 (UniProt P11362); assay: as above
Chain of FGFR1 (P11362 whole entry, looked up): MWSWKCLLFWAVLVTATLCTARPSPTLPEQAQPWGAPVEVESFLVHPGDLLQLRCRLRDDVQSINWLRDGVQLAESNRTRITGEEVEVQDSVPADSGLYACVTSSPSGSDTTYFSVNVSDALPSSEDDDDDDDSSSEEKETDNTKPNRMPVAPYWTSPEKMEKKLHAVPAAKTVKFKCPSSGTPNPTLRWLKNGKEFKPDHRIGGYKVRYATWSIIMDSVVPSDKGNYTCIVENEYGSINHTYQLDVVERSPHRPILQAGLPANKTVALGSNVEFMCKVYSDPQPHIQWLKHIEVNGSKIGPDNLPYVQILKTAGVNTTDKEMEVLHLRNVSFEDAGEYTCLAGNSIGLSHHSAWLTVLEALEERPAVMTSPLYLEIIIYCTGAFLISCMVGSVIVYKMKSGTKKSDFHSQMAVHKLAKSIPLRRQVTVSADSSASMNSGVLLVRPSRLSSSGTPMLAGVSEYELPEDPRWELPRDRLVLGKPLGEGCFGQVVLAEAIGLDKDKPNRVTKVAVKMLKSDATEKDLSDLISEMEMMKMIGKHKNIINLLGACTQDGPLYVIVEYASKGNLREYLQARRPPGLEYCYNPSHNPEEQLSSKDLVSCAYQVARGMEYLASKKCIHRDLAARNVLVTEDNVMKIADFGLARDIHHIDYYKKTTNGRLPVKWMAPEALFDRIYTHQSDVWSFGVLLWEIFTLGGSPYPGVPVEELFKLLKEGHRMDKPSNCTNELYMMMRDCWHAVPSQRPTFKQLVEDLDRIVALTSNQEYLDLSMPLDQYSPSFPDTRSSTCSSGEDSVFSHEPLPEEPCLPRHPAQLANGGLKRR

[6] = test system: c-Src; assay: as above
[7] = test system: c-Abl (mouse); assay: as above
[8] = molecular target: Fes (UniProt P07332); assay: as above
Chain of Fes (P07332 whole entry, looked up): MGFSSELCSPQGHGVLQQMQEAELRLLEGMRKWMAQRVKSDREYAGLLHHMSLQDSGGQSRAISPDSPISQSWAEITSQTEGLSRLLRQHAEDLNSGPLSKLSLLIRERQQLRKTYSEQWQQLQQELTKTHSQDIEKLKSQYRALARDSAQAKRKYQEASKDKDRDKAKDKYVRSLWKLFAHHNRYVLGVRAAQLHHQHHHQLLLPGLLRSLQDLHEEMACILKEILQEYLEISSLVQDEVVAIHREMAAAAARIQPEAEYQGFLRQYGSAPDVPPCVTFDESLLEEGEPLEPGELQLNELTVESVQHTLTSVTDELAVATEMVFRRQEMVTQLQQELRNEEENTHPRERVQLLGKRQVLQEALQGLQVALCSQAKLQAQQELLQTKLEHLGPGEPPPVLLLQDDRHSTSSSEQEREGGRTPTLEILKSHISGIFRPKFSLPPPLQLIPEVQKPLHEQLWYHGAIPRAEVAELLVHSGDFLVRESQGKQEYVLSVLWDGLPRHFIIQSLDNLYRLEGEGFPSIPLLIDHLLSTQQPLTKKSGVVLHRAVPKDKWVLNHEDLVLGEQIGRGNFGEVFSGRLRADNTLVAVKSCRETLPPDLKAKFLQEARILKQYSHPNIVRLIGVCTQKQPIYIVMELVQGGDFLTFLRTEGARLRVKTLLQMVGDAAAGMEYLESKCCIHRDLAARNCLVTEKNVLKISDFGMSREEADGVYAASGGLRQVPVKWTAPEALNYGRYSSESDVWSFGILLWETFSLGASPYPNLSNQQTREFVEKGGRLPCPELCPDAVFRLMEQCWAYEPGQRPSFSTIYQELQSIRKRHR

[9] = molecular target: Fyn (UniProt P06241); assay: as above
Chain of Fyn (P06241 whole entry, looked up): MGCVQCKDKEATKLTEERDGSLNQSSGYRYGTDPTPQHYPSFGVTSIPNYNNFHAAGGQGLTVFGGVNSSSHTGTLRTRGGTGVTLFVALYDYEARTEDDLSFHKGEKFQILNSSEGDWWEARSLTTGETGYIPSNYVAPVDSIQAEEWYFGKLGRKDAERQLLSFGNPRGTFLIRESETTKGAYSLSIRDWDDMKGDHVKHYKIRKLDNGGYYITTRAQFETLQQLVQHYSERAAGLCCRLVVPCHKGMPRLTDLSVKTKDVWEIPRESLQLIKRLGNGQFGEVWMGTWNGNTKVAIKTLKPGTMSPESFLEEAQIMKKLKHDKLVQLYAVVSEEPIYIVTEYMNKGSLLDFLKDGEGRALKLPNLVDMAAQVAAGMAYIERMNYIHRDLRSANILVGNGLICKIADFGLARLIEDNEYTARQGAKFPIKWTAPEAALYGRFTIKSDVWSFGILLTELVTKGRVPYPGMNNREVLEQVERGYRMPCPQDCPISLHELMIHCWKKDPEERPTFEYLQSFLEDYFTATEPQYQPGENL

[10] = test system: Fer (mouse); assay: as above
[11] = molecular target: Jak2 (UniProt O60674); assay: as above
[12] = molecular target: MERTK (UniProt Q12866); assay: as above
Chain of MERTK (Q12866 whole entry, looked up): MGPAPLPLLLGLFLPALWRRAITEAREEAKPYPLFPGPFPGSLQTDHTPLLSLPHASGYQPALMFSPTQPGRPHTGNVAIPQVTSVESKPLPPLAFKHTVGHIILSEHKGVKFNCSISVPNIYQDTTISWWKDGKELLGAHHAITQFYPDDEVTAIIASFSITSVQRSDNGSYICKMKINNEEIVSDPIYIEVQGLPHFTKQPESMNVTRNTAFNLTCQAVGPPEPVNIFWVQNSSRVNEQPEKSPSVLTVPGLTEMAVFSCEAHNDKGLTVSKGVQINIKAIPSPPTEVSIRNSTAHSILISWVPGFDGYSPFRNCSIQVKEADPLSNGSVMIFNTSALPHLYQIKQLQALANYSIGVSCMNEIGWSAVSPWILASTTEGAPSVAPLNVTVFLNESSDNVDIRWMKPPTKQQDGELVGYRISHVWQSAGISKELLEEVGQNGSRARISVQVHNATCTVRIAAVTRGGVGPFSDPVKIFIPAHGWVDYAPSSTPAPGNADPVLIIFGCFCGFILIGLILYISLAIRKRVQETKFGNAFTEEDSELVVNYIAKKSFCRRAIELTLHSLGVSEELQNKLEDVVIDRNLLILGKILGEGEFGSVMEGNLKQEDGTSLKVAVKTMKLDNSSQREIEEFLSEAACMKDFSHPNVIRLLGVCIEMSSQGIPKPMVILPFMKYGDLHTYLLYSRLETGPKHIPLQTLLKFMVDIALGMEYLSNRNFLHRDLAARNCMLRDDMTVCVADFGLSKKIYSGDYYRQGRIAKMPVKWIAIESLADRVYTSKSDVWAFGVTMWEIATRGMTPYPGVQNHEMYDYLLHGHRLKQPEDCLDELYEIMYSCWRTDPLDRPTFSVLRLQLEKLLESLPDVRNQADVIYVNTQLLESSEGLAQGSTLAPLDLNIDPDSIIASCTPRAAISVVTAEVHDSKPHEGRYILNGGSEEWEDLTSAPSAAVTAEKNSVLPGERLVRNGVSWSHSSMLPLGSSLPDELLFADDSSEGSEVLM

[13] = molecular target: EPHB1 (UniProt P54762); assay: as above
Chain of EPHB1 (P54762 whole entry, looked up): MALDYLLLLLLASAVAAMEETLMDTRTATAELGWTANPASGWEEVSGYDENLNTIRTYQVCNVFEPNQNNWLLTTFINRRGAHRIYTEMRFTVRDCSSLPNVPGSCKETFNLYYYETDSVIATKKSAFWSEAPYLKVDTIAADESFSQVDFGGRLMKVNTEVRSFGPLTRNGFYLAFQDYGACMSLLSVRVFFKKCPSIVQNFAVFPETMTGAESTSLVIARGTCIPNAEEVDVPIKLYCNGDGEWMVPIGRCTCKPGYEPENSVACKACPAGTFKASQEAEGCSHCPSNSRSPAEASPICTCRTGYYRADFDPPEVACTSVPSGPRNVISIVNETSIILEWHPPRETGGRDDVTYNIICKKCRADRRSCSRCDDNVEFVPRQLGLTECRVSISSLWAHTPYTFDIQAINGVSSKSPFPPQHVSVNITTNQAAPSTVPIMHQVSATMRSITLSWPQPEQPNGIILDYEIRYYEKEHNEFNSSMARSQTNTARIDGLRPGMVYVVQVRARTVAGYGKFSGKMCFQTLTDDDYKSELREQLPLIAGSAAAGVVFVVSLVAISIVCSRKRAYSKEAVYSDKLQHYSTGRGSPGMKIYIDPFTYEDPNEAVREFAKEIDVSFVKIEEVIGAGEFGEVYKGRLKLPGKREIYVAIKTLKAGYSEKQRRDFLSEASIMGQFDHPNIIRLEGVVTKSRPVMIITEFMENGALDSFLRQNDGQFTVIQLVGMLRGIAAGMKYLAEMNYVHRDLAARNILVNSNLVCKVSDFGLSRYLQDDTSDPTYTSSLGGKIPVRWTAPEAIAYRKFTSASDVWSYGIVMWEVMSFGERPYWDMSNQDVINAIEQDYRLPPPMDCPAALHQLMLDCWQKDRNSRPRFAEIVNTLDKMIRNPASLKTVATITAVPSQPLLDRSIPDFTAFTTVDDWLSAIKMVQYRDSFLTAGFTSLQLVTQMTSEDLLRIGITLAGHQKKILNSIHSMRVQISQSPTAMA

[14] = molecular target: SHP2-C SH2; assay: SH2 binding enrichment of the phosphorylated peptide, bacterial display (enrichment ratio); higher = better substrate or ligand; peptides without Tyr show the background
[15] = molecular target: Grb2 SH2 (UniProt P62993); assay: as above
[16] = molecular target: c-Src SH2; assay: as above
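Throughout, for SH2 binding enrichment of the phosphorylated peptide, bacterial display: peptide library displayed on the E. coli surface as eCPX fusions, selected cells deep-sequenced, score is each peptide's frequency after selection divided by its frequency in the input.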
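Throughout, for phosphorylation enrichment, bacterial display: 11-residue human phosphosite peptides and single-mutation variants displayed on the E. coli surface, counted by deep sequencing, each peptide's frequency after selection divided by its frequency in the unselected input library; frequency after pTyr selection over input frequency; kinase dosed for 20-30% of maximal phosphorylation in three min.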

Chain of FGFR3 (P22607 whole entry, looked up): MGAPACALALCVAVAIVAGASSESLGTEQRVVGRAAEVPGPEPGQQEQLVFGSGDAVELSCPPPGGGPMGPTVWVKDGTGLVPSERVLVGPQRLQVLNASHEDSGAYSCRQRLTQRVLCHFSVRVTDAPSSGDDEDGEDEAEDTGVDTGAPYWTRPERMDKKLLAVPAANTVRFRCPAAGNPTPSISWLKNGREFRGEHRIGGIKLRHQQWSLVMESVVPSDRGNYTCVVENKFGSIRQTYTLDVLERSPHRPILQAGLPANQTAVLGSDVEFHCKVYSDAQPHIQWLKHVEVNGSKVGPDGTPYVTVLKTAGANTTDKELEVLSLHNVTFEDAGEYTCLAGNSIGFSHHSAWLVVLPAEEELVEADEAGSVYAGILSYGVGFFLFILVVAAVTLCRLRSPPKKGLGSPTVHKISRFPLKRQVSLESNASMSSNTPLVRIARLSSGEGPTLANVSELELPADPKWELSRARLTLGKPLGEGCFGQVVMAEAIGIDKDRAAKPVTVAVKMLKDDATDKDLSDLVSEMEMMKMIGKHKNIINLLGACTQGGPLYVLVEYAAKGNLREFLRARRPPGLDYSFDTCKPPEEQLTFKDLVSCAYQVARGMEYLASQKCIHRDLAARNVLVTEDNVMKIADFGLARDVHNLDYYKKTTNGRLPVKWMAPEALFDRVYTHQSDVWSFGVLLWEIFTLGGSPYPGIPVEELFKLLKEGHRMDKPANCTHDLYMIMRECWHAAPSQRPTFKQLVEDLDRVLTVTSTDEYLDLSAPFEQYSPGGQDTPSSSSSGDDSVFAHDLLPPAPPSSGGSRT

Sequence | SH2 binding enrichment [14] | SH2 binding enrichment [15] | SH2 binding enrichment [16] | phosphorylation enrichment [1] | phosphorylation enrichment [2] | phosphorylation enrichment [3] | phosphorylation enrichment [4] | phosphorylation enrichment [5] | phosphorylation enrichment [6] | phosphorylation enrichment [7] | phosphorylation enrichment [8] | phosphorylation enrichment [9] | phosphorylation enrichment [10] | phosphorylation enrichment [11] | phosphorylation enrichment [12] | phosphorylation enrichment [13]
IKGIRYLHHRG [GUCY2D_Y656] | 0.966 | 1.39 | 1.01 | 0.344 | 0.363 | 0.466 | 0.358 | 0.348 | 0.439 | 0.497 | 0.469 | 0.415 | 0.432 | 0.597 | 0.376 | 0.423
ILGTFYETGSI [PAX2_Y73_R71T_YF] | 0.837 | 0.841 | 0.619 | 0.621 | 0.526 | 0.773 | 0.541 | 0.582 | 0.529 | 0.587 | 0.956 | 0.524 | 0.749 | 0.871 | 0.568 | 0.466
ILGTYYETGSI [PAX2_Y73_R71T] | 0.559 | 0.998 | 1.4 | 2.99 | 8.15 | 0.971 | 2.19 | 9.71 | 4.01 | 1.16 | 1.04 | 4.14 | 0.645 | 1.28 | 3.6 | 2.54
ILLAGCLVMVI [SLC28A3_Y113_Y113C] | 0.534 | 0.92 | 0.533 | 0.51 | 0.829 | 1.24 | 0.614 | 0.422 | 0.475 | 0.995 | 1.26 | 0.471 | 0.493 | 1.18 | 0.486 | 0.607
ILTLKYPIKHG [ACTA1_Y71_E74K] | 1.46 | 1.12 | 0.787 | 0.349 | 0.497 | 0.523 | 0.518 | 0.449 | 0.341 | 0.367 | 0.588 | 0.431 | 0.413 | 0.558 | 0.344 | 0.426
INMKEYCKKDF [NTN1_Y490_K489E_YF] | 0.65 | 1.01 | 0.574 | 0.498 | 0.743 | 0.877 | 0.678 | 0.512 | 0.476 | 0.791 | 1.12 | 0.669 | 0.427 | 0.937 | 0.468 | 0.66
INPIIYAFVVE [CCR5_Y297_G301V] | 0.73 | 0.912 | 0.402 | 1.78 | 1.29 | 1.25 | 3.82 | 1 | 2.59 | 2.37 | 1.5 | 2.42 | 2.66 | 1.2 | 4.13 | 4.53
IPGRYYETGSI [PAX2_Y73_L69P] | 0.743 | 0.777 | 1.67 | 0.428 | 0.498 | 0.505 | 0.595 | 0.492 | 0.437 | 0.616 | 0.646 | 0.454 | 0.331 | 0.573 | 0.405 | 0.451
IRGNMYYENSY [EGFR_Y112] | 0.897 | 4.75 | 4.19 | 0.603 | 0.665 | 0.761 | 0.594 | 0.58 | 0.526 | 0.449 | 0.733 | 0.468 | 0.535 | 0.55 | 1.06 | 0.486
IRKDLYANNVL [ACTA2_Y296] | 0.614 | 1.23 | 0.569 | 0.45 | 0.564 | 0.527 | 0.46 | 0.421 | 0.429 | 0.581 | 0.59 | 0.413 | 0.422 | 0.54 | 0.476 | 0.38
IRTIDYRYTVS [IDS_Y497_W502S] | 0.823 | 0.73 | 0.69 | 0.532 | 0.601 | 0.789 | 0.666 | 0.593 | 0.385 | 0.46 | 1.13 | 0.558 | 0.45 | 0.713 | 0.411 | 0.437
IVAEFYDNLPH [DEGS1_Y284_A280V_YF] | 0.695 | 0.727 | 0.931 | 3.36 | 0.624 | 0.929 | 0.556 | 0.477 | 0.733 | 0.694 | 0.891 | 0.549 | 0.978 | 0.792 | 0.853 | 0.517
IVEYAYNDKAV [PUM3_Y259_I264V] | 0.881 | 0.927 | 0.719 | 0.42 | 0.673 | 0.989 | 0.418 | 0.52 | 0.492 | 1.01 | 1.1 | 0.418 | 0.455 | 1 | 0.5 | 0.669
KANEYYPVVII [ADAMTS18_Y765_L769I] | 0.458 | 0.721 | 0.383 | 0.738 | 10.8 | 2.63 | 2.08 | 12.8 | 0.704 | 2.4 | 0.978 | 0.613 | 1.45 | 3.18 | 0.81 | 1.65
KDHPDYKFQPR [SOX10_Y171_YF] | 0.71 | 0.946 | 0.498 | 0.48 | 0.543 | 0.694 | 0.501 | 0.519 | 0.453 | 0.573 | 0.745 | 0.487 | 0.44 | 0.566 | 0.468 | 0.466
KDKLPYPFDDP [GPX2_Y125_YF] | 0.854 | 0.815 | 0.454 | 0.498 | 0.638 | 1.04 | 0.792 | 0.567 | 0.486 | 0.581 | 1.01 | 0.556 | 0.533 | 0.821 | 0.512 | 0.457
KDQGGYTMHQD [MAPT_Y29] | 0.349 | 0.722 | 0.451 | 0.484 | 0.465 | 0.754 | 0.456 | 0.512 | 0.385 | 0.569 | 0.793 | 0.404 | 0.399 | 0.542 | 0.413 | 0.4
KEEEDYREENN [BMS1_Y651_K652R] | 0.822 | 0.754 | 0.458 | 0.65 | 0.79 | 1.3 | 0.528 | 0.582 | 0.536 | 0.877 | 1.24 | 0.5 | 0.585 | 1.15 | 0.601 | 0.63
KFADVYVGICL [B3GALNT1_Y269_E266A] | 0.369 | 0.731 | 0.423 | 0.85 | 0.909 | 1.46 | 0.988 | 0.65 | 1.12 | 1.29 | 1.34 | 0.787 | 0.978 | 1.21 | 0.522 | 0.846
KGNMYYENSYA [EGFR_Y113_R108K] | 1.05 | 10.2 | 4.96 | 0.561 | 0.72 | 0.667 | 0.593 | 0.878 | 0.473 | 0.474 | 0.77 | 0.515 | 1.23 | 0.481 | 1.17 | 0.629
KGSEGYLAAIY [NF1_Y2503_T2507I] | 0.606 | 0.911 | 0.54 | 1.09 | 0.552 | 0.78 | 0.561 | 0.572 | 0.898 | 0.563 | 0.912 | 0.8 | 0.493 | 0.673 | 0.485 | 0.525

More lines, main results first:

SH2 binding enrichment [14] | SH2 binding enrichment [15] | SH2 binding enrichment [16] | Sequence | phosphorylation enrichment [1] | phosphorylation enrichment [2] | phosphorylation enrichment [3] | phosphorylation enrichment [4] | phosphorylation enrichment [5] | phosphorylation enrichment [6] | phosphorylation enrichment [7] | phosphorylation enrichment [8] | phosphorylation enrichment [9] | phosphorylation enrichment [10] | phosphorylation enrichment [11] | phosphorylation enrichment [12] | phosphorylation enrichment [13]
0.623 | 0.78 | 0.465 | IKETHYMVDRC | 0.461 | 0.579 | 0.992 | 0.704 | 0.555 | 0.464 | 0.581 | 0.992 | 0.455 | 0.47 | 0.654 | 0.481 | 0.472
0.781 | 1.15 | 0.47 | INITIYGKTFH [EFHC1_Y177_R182H] | 0.544 | 0.817 | 1.11 | 0.513 | 0.429 | 0.468 | 0.958 | 1.44 | 0.519 | 0.579 | 1.08 | 0.473 | 0.546
0.65 | 0.742 | 0.513 | ISSLRYKLLEE [TRPC6_Y896_E897K] | 0.47 | 0.549 | 0.786 | 0.476 | 0.426 | 0.407 | 0.603 | 0.986 | 0.503 | 0.38 | 0.64 | 0.347 | 0.514
0.574 | 0.934 | 1.5 | IVAEYYDNLPH [DEGS1_Y284_A280V] | 3.07 | 6.4 | 1.9 | 0.924 | 9.37 | 0.958 | 1.25 | 1.38 | 0.682 | 1.37 | 1.53 | 1.51 | 1.09
0.742 | 0.866 | 0.611 | IYRASYVPFAA [RBM47_Y541_G538R] | 0.657 | 0.645 | 1.04 | 0.571 | 0.562 | 0.681 | 7.02 | 0.897 | 0.593 | 0.521 | 0.82 | 0.66 | 0.81
0.836 | 0.97 | 0.97 | KAIMTYVPSFF [ACTN4_Y260_S262P_YF] | 0.497 | 0.542 | 0.72 | 0.531 | 0.445 | 0.46 | 0.647 | 0.838 | 0.499 | 0.438 | 0.678 | 0.487 | 0.61
0.816 | 0.715 | 0.465 | KDGSGYISAAE [CALM1_Y100_N98S] | 0.444 | 0.496 | 0.648 | 0.409 | 0.456 | 0.4 | 0.544 | 0.82 | 0.476 | 0.369 | 0.6 | 0.464 | 0.388
0.682 | 0.871 | 1.04 | KDKLPYLYDDP [GPX2_Y125_P126L] | 0.537 | 0.624 | 1.17 | 0.765 | 0.5 | 0.455 | 0.547 | 0.983 | 0.522 | 0.77 | 0.857 | 0.461 | 0.947
1.48 | 1.38 | 1.19 | KGPNVCKKTVN [REV3L_Y1156_Y1156C] | 0.516 | 0.741 | 0.644 | 0.525 | 0.529 | 0.54 | 1.13 | 0.863 | 0.378 | 0.376 | 0.944 | 0.415 | 0.457
0.606 | 0.633 | 0.529 | KGPNVYKKTVN [REV3L_Y1156] | 0.414 | 0.391 | 0.456 | 0.31 | 0.448 | 0.546 | 0.492 | 0.581 | 0.313 | 0.429 | 0.5 | 0.362 | 0.307
0.71 | 0.75 | 3.69 | KGSLPYNLILD [PKD1L2_Y406] | 0.44 | 0.616 | 0.695 | 0.418 | 0.552 | 0.542 | 0.743 | 0.713 | 0.438 | 0.488 | 0.687 | 0.421 | 0.468
0.592 | 0.643 | 0.465 | KGVDRYNPENL [EIF3K_Y21_I18V] | 0.437 | 0.372 | 0.502 | 0.648 | 0.308 | 0.397 | 0.392 | 0.466 | 0.415 | 0.311 | 0.428 | 0.402 | 0.35
